In US20220002432A1 (VIRTUOSO BINCO, published 2022):
Residue numbers refer to the chain shown, from its start.

B1: 10B8 (antibody, human IgG1, kappa, V domains shown)
VH: QSLEESGGRLVTPGGSLTLTCTVSGFSLSSYGMSWVRQAPGKGLEYIGWISFSGSAYYANWAKGRFTISKTSTTVDLKITSPTTEDTATYFCARGGDYGGSTYILNLWGPGTLVTVSS
VL: AFELTQTPSSVEAAVGGTVTIKCQASESINSYLSWYQQKPGQPPKLLIYAASTLASGVSSRFKGSGSGTEFTLTISDLESADAATYYCQSYSGTISTSGGAFGGGTEVVVKR
notes: Rabbit-human chimeric anti-ICAM1: rabbit VH and VL on human IgG1 and kappa constant regions
B2: 4618_1 (antibody, human IgG1, kappa, V domains shown)
VH: EVQLLESGGGLVQPGGSLRLSCAASGFPFDVYAMSWVRQAPGKGLEWVSAISGSGGSTFYADSVKGRFTISRDNSKNTLYLQMNSLRAEDTAVYYCAKRGTYAYSFPTGFDYWGQGTLVTVSS
VL: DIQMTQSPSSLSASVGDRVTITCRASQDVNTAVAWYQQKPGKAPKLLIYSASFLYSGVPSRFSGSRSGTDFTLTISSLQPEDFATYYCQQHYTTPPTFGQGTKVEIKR
notes: Human IgG1 with the common anti-HER2 light chain; Library-derived anti-CD38
B3: 4618_1_12 (antibody, human IgG1, kappa, V domains shown)
VH: B2 VH with F106Y
VL: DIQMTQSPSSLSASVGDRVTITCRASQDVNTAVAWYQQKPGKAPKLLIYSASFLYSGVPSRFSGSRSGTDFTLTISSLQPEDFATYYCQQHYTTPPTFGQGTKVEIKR
notes: as for B2
B4: 4618_5 (antibody, human IgG1, kappa, V domains shown)
VH: B2 VH with V31A, F59Y
VL: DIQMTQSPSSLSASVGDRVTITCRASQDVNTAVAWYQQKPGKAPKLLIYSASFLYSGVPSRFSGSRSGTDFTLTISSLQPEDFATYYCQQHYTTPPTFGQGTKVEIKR
notes: as for B2
B5: 4618_5F_12 (antibody, human IgG1, kappa, V domains shown)
VH: B2 VH with V31A, F106Y
VL: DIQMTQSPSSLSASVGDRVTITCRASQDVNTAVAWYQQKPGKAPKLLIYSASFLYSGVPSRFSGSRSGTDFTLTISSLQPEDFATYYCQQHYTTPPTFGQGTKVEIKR
notes: Human IgG1 with the common anti-HER2 light chain
B6: 4618_5_12 (antibody, human IgG1, kappa, V domains shown)
VH: B2 VH with V31A, F59Y, F106Y
VL: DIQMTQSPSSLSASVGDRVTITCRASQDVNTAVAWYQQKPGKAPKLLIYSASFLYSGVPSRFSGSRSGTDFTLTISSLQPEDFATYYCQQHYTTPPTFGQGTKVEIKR
notes: as for B2
B7: 4618_12 (antibody, human IgG1, kappa, V domains shown)
VH: B2 VH with D30G, F106Y
VL: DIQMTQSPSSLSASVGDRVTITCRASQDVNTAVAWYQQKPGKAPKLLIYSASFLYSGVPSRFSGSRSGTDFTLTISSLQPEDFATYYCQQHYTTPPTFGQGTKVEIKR
notes: as for B5
B8: 32018_7 (antibody, human IgG1, kappa, V domains shown)
VH: B2 VH with D30G, V31T, A103G
VL: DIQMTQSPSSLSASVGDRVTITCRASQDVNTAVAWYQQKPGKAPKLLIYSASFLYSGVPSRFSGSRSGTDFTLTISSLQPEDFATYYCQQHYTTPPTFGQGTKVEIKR
notes: as for B2
B9: 32218_1 (antibody, human IgG1, kappa, V domains shown)
VH: B2 VH with D30G
VL: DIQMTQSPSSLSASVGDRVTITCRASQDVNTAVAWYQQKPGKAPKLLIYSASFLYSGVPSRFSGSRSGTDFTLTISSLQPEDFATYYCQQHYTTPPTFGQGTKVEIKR
notes: as for B2
B10: 32218_2 (antibody, human IgG1, kappa, V domains shown)
VH: B2 VH with V31T, F59Y
VL: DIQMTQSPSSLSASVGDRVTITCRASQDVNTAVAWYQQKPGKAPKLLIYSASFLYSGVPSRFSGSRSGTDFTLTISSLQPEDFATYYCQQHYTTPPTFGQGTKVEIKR
notes: as for B2

What follows are binders tested against T1, ICAM1 on the surface of DU145 cells (human, UniProt P05362 28-532) (assay: flow cytometry, DU145 cells;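 further: purified antibodies in dilution series bound to cells for 1 h at 4 °C, detected with a fluorescent secondary antibody (1 h, 4 °C, dark), read by flow cytometry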).
T1 construct: whole, on cells
T1 sequence (P05362 28-532): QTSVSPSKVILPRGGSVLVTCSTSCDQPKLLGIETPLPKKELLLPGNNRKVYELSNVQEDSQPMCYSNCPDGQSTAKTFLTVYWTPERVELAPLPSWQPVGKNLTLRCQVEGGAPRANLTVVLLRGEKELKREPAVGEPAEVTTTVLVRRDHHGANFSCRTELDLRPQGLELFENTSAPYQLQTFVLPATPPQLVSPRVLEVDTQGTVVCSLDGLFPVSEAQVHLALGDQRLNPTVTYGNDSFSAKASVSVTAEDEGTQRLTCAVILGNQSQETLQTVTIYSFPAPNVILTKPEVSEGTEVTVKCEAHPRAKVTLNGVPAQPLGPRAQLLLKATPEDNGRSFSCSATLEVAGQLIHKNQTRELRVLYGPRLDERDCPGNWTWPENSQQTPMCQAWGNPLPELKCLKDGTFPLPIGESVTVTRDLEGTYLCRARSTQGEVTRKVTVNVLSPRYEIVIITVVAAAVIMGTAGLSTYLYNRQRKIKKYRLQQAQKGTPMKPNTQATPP
Procedure: Harvested cells were centrifuged at 2000 rpm for 5 min and resuspended with 10-15 ml ice-cold culture medium. Cells were counted and then 3×10⁶ cells were resuspended per mL of blocking buffer (PBS plus 2% FBS). 100 μl of the cell suspension was dispensed into each well of a 96-well plate and incubated at room temperature for 10-20 min. […] While incubating, purified antibodies were diluted to the desired dilution with blocking buffer. After a 10-20 minutes incubation, cells were centrifuged for 5 min at 2000 rmp in a refrigerated centrifuge. Blocking buffer was aspirated, and cells were resuspended in 100 μl/well diluted antibodies and incubated for 1 hour at 4° C. The cells were then washed 3 times with PBS plus 2% FBS. After the final wash, the cells were resuspended in 100 μl 1:500 diluted secondary antibody (Invitrogen, Cat #: A10631) and incubated for 1 hour at 4° C. in the dark. The cells were then washed 3 times with 200 μl PBS by centrifuging at 2000 rpm for 5 min. After the last wash, the cells were resuspended in 300 μl cold PBS and analyzed on a FACSVerse™ (BD Biosciences) flow cytometer.

Q: For B1, which EC50 is on record?
A: The EC50 was 0.251 nM.

Q: What about the “Max Binding MFI” value of the same binder?
A: The value was 6220 MFI.

What follows are binders tested against recombinant human CD38 (human, UniProt P28907 43-300, limits assumed) (assay: SPR (Biacore 8K), antibody captured, antigen injected;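 further: antibodies held on a CM5 chip by anti-human IgG Fc, antigen in 3-fold dilution series, 1 min association, 10 min dissociation at 25 °C, 1:1 Langmuir kinetic fit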).
Procedure: (§1) The binding kinetics of the anti-CD38 and anti-ICAM1 antibodies were evaluated on a Biacore 8K instrument (GE Healthcare). Biacore Series S CM5 sensor chips were immobilized with monoclonal mouse anti-human IgG (Fc) antibody (human antibody capture kit from GE Healthcare). Antibodies were captured on each flow cell. Serial 3-fold dilutions of each antigen were injected at a flow rate of 30 μl/min. Each sample was analyzed with 1 min association and 10 min dissociation at room temperature (25° C.). After each injection, the chip was regenerated using 3M MgCl₂. A 1:1 Langmuir model of simultaneous fitting of kₒₙ and koff was used for kinetics analysis.

Q: Which Kd does the source give for B2 here?
A: The Kd was 3.81 nM.

Q: And the koff?
A: Its koff is 0.00188 s⁻¹.

Q: What about the kon of the same binder?
A: Its kon is 494000 M⁻¹ s⁻¹.

Q: Which Kd does the source give for B3 here?
A: The Kd was 0.42 nM.

Q: What about the koff of the same binder?
A: Its koff is 0.000273 s⁻¹.

Q: What about the kon of the same binder?
A: Its kon is 657000 M⁻¹ s⁻¹.

Q: How did the Kd turn out when B4 was run?
A: Its Kd is 2.23 nM.

Q: And the koff?
A: The koff was 0.00121 s⁻¹.

Q: And the kon?
A: Its kon is 542000 M⁻¹ s⁻¹.

Q: With B5 as the binder, how does the Kd read?
A: Its Kd is 0.66 nM.

Q: And the koff?
A: Its koff is 0.000295 s⁻¹.

Q: And the kon?
A: Its kon is 449000 M⁻¹ s⁻¹.

Q: Which Kd does the source give for B6 here?
A: The Kd was 1.68 nM.

Q: What about the koff of the same binder?
A: Its koff is 0.000596 s⁻¹.

Q: And the kon?
A: The kon was 354000 M⁻¹ s⁻¹.

Q: With B7 as the binder, how does the Kd read?
A: The Kd was 1.79 nM.

Q: What about the koff of the same binder?
A: The koff was 0.00077 s⁻¹.

Q: What about the kon of the same binder?
A: The kon was 430000 M⁻¹ s⁻¹.

Q: How did the Kd turn out when B8 was run?
A: Its Kd is 38.2 nM.

Q: And the koff?
A: The koff was 0.0116 s⁻¹.

Q: What about the kon of the same binder?
A: Its kon is 304000 M⁻¹ s⁻¹.

Q: B9 was tested. Which Kd did it give?
A: The Kd was 3.61 nM.

Q: And the koff?
A: The koff was 0.00178 s⁻¹.

Q: And the kon?
A: The kon was 493000 M⁻¹ s⁻¹.

Q: What does the source list for B10?
A: Kd: 13.1 nM; koff: 0.00887 s⁻¹; kon: 675000 M⁻¹ s⁻¹

The binders below were run against T2, cynomolgus CD38 ECD (cynomolgus, UniProt Q5VAN0 44-301, biotinylated on the AviTag during preparation) in the same assay as above.
T2 construct: also called Cyno-CD38; Avi-Cyno CD38 ECD
Procedure: as §1

Q: With B2 as the binder, how does the Kd read?
A: Its Kd is 1.68 nM.

Q: What about the koff of the same binder?
A: Its koff is 0.00288 s⁻¹.

Q: And the kon?
A: The kon was 1.71e+06 M⁻¹ s⁻¹.

Q: How did the Kd turn out when B3 was run?
A: The Kd was 0.62 nM.

Q: What about the koff of the same binder?
A: Its koff is 0.00157 s⁻¹.

Q: What about the kon of the same binder?
A: The kon was 2.53e+06 M⁻¹ s⁻¹.

Q: How did the Kd turn out when B4 was run?
A: Its Kd is 1.48 nM.

Q: What about the koff of the same binder?
A: Its koff is 0.00321 s⁻¹.

Q: And the kon?
A: Its kon is 2.17e+06 M⁻¹ s⁻¹.

Q: B5 was tested. Which Kd did it give?
A: Its Kd is 0.83 nM.

Q: And the koff?
A: The koff was 0.00144 s⁻¹.

Q: What about the kon of the same binder?
A: The kon was 1.74e+06 M⁻¹ s⁻¹.

Q: What does the source list for B6?
A: Kd: 1.33 nM; koff: 0.00168 s⁻¹; kon: 1.26e+06 M⁻¹ s⁻¹

Q: How did the Kd turn out when B7 was run?
A: The Kd was 1.65 nM.

Q: What about the koff of the same binder?
A: The koff was 0.00253 s⁻¹.

Q: What about the kon of the same binder?
A: Its kon is 1.53e+06 M⁻¹ s⁻¹.

Q: With B8 as the binder, how does the Kd read?
A: Its Kd is 12.4 nM.

Q: What about the koff of the same binder?
A: The koff was 0.0155 s⁻¹.

Q: And the kon?
A: Its kon is 1.25e+06 M⁻¹ s⁻¹.

Q: How did the Kd turn out when B9 was run?
A: The Kd was 4.1 nM.

Q: What about the koff of the same binder?
A: Its koff is 0.00496 s⁻¹.

Q: And the kon?
A: Its kon is 1.21e+06 M⁻¹ s⁻¹.

Q: With B10 as the binder, how does the Kd read?
A: The Kd was 7.43 nM.

Q: What about the koff of the same binder?
A: The koff was 0.0156 s⁻¹.

Q: What about the kon of the same binder?
A: Its kon is 2.1e+06 M⁻¹ s⁻¹.

What follows are binders tested against T3, recombinant human ICAM1 (human, UniProt P05362 28-480, limits assumed) in the same assay as above.
T3 sequence (P05362 28-480 limits assumed): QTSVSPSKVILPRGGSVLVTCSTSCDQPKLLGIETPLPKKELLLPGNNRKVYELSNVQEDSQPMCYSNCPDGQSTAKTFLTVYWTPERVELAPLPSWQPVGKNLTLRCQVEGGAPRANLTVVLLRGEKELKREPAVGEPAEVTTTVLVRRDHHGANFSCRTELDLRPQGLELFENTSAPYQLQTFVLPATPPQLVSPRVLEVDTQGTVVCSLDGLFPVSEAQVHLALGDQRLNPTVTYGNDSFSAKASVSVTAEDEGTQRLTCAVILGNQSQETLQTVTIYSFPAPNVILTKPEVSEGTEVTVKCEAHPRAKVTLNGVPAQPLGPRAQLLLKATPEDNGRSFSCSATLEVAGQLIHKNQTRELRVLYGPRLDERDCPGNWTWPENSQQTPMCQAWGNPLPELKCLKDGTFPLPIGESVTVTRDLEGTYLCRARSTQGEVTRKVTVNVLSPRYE
Procedure: as §1

Q: How did the Kd turn out when B1 was run?
A: The Kd was 3.32 nM.

Q: What about the koff of the same binder?
A: The koff was 0.000682 s⁻¹.

Q: And the kon?
A: The kon was 206000 M⁻¹ s⁻¹.

What follows are binders tested against T4, Rhesus-ICAM1 (rhesus, UniProt Q5NKV6 28-480, limits assumed) in the same assay as above.
T4 sequence (looked up): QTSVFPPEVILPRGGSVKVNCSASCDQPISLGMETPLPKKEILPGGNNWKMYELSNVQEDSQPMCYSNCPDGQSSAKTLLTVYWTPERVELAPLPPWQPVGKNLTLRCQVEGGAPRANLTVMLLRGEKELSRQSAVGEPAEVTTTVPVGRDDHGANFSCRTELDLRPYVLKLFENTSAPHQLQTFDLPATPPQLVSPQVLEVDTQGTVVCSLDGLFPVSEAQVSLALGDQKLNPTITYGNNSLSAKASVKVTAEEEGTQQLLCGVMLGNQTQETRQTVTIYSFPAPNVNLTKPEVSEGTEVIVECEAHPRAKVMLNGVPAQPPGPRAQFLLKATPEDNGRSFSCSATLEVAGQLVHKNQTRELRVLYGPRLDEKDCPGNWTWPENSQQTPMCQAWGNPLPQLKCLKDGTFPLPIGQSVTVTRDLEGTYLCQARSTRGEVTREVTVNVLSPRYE
Procedure: as §1

Q: B1 was tested. Which Kd did it give?
A: Its Kd is 8.27 nM.

Q: And the koff?
A: The koff was 0.00245 s⁻¹.

Q: And the kon?
A: Its kon is 296000 M⁻¹ s⁻¹.

These binders were tested against T3, recombinant human ICAM1 (assay: ELISA: plate coated with 1 ug/ml recombinant human ICAM1 ECD, serially diluted antibody, OD450).
Procedure: (§2) The plate was coated overnight at 4° C. with 1 μg/ml recombinant CD38 or ICAM1. After washing 3 times, the plate was blocked with 300 μl 1% BSA in PBST at 37° C. for 1 hour. Serially diluted antibodies were added and incubated at 37° C. for 1 hour. The plate was then washed 4 times with PBST and incubated with 1:5000 diluted 2nd antibody (Sigma, Cat #A0293) at 37° C. for 1 hour.

Q: B1 was tested. Which “EC50 (read off the curve)” value did it give?
A: The value was ~0.04 nM.

What follows are binders tested against T4, Rhesus-ICAM1 (assay: ELISA: plate coated with 1 ug/ml recombinant rhesus ICAM1 ECD, serially diluted antibody, OD450).
Procedure: as §2

Q: Which “EC50 (read off the curve)” value does the source give for B1 here?
A: Its value is ~0.04 nM.
